Source: patent publication US9163071B2

What was measured:
[1] = molecular target: NF-κB p65, endogenous in the cells (activated by TNFα) (human) (UniProt Q04206)
[2] = molecular target: NF-κB p65, endogenous in the cells (activated by TNFα) (human) (UniProt Q04206); remark: listed apart in the source
[3] = molecular target: CIAS1-PYD (pyrin only CIAS1 construct) (Homo sapiens (Human)) (UniProt Q96P20)
[4] = molecular target: Myc-ASC (Myc-tagged Apoptosis speck protein containing a CARD) (Homo sapiens (Human)) (UniProt Q9ULZ3)

Row | TNFα-stimulated 3X-NF-κB-Luc reporter (luciferase) [1] [fold] | p65 localization pattern after TNFa treatment (immunofluorescence, cells scored) [2] [%] | percentage of ASC expressing cells containing specks (CIAS1-PYD co-expressed) [3] [%] | percentage of ASC expressing cells containing specks (CIAS1-PYD co-expressed) [4] [%] | Substance
1 | 3 |  |  |  | FLAG-POP2 (POP2 with an N-terminal Flag epitope in pcDNA 3.1)
2 |  | 40 | 10 | 10 | GFP-POP2 (GFP fusion of pyrin-only protein 2)
